From patent US8106013B2 (Georgia Tech Research Corporation, priority 2006, dated 2012)
pKi: −log10 of the molar value.

Legend:
[1] = molecular target: T1, Shaker Kv1.1 channels (ShB-IR) (Drosophila melanogaster, UniProt P08510, DEL6-46); settings: read-out: reported Ki for inhibition of Shaker channels; cited from earlier work
T1 construct: expressed in transfected cells; host or cells: Xenopus oocytes injected with cRNA

[2] = molecular target: T1, Shaker Kv1.1 channels (ShB-IR); experiment: ShB-IR K+ currents in oocytes, two-electrode voltage clamp; type: cell-based; settings: 24 nM recombinant ChTx
Protocol: For ShB-IR, holding potential was −90 mV. Leak subtraction used a P/4 protocol with a conditioning pulse to −120 mV. Voltage was stepped from −100 mV post-train to potentials ranging from −40 to 0 mV in 10 mV increments.
Adult female Xenopus were obtained from Xenopus One (Ann Arbor, Mich.). […] For experiments with ShB-IR, oocytes were injected with 0.06-1 ng cRNA. Leak currents were subtracted using a P/4 protocol; corrected traces are shown.
For these experiments, the ShB variant was used with inactivation-removed (ShB-IR).

T1 sequence (P08510 with tags, fused parts or gaps DEL6-46): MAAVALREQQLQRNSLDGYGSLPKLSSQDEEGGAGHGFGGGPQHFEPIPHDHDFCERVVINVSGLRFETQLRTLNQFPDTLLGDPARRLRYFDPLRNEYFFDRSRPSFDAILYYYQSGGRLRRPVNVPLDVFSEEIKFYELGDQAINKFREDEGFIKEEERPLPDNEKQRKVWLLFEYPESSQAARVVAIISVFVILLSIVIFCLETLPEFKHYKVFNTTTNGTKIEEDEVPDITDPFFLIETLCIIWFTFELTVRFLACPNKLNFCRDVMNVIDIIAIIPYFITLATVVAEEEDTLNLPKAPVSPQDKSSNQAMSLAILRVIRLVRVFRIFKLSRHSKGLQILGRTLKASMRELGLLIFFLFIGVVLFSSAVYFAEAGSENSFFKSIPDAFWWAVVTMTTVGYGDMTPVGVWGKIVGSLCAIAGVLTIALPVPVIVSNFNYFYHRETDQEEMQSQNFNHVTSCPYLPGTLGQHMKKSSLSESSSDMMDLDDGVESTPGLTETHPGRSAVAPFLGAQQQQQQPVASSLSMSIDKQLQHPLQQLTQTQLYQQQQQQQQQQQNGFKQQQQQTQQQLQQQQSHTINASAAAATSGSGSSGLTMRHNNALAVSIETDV

Substance: charybdotoxin [ChTx]
- pKi [1]: ~6.70
- inhibition of ShB-IR currents [2]: 15%
